This series has as its system N[C@@H](Cc1ccc(O)c(O)c1)C(=O)O. The experiment in a line: purified protein. The series is classed as biochemical, Gluconacetobacter diazotrophicus. The note with it: 50 mM sodium phosphate pH 6.5, 10 mM sodium ascorbate, 25 °C, air.

Chain of GdDODA (4,5-DODA from Gluconacetobacter diazotrophicus) (Gluconacetobacter diazotrophicus PA1 5) (chain, as listed by the source): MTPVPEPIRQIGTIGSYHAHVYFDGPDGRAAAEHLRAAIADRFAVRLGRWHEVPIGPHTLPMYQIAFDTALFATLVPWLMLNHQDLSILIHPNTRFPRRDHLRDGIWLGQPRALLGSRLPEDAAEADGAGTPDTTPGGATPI

With “GdDODA (4,5-DODA from Gluconacetobacter diazotrophicus) (Gluconacetobacter diazotrophicus PA1 5)”, the Km (in general, the substrate concentration at which the rate is half of its maximum) is 1360 ± 310 µM and the kcat (in general, the maximal rate divided by the concentration of active sites) was determined as 0.00833 ± 0.000317 s⁻¹.

The values above are taken from publication PMC6426604, “First Betalain-Producing Bacteria Break the Exclusive Presence of the Pigments in the Plant Kingdom” (mBio, 2019).
